Read-outs that look alike come from different tables or passages of the source.
Tests used:
[1] = molecular target: T1, human sodium-dependent phosphate transporter 2B (NaPi2b) (human, UniProt O95436 1-690); assay: cell-based or functional assay
T1 sequence: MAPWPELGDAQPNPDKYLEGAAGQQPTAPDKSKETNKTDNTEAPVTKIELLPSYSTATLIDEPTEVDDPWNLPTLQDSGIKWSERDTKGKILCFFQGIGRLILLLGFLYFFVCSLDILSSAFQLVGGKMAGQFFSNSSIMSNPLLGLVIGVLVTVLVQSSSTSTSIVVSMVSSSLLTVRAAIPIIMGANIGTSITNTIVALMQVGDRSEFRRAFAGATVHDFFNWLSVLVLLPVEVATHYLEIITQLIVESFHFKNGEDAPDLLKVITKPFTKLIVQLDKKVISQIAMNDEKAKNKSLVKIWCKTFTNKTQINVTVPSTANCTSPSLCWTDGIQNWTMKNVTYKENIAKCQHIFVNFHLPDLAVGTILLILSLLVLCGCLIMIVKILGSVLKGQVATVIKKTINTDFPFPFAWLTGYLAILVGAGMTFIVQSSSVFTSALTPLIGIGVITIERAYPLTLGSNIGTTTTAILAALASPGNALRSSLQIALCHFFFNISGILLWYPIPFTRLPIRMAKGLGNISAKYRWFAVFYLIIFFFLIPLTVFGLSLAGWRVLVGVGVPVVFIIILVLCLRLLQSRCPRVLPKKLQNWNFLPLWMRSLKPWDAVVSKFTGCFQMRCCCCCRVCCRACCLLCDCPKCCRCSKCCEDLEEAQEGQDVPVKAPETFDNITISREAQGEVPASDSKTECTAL

[2] = molecular target: T1, human sodium-dependent phosphate …; assay: cell-based or functional assay; remark: listed apart in the source
[3] = molecular target: T1, human sodium-dependent phosphate …; assay: cell-based or functional assay; remark: listed apart in the source
[4] = molecular target: T2, KLH (Sigma-Aldrich, H8283); assay: NS-ELISA, plate coated with KLH, mAb at 100 nM; ratio of signal to a buffer well
T2 construct: Coating protein of the non-specific ELISA (NS-ELISA)
Description: NS-ELISA was used to measure the propensity of the antibodies to bind to a range of biomolecules to emulate the undesirable non-specific interactions to biological matrices in vivo as described below.
NS-ELISA was carried out in Corning@ 96-well EIA/RIA Easy Wash™ Clear Flat Bottom Polystyrene High Bind Microplate coated overnight at 4° C. with 50 μL of Heparin (Sigma, H3149) diluted with 50 mM sodium carbonate pH 9.6 to a final concentration of 250 μg/mL. The plate was incubated for 2 days at room temperature, wells that were coated with heparin were not covered to allow air dry. […] 50 μL each of insulin, KLH, dsDNA and ssDNA were added to a 96 well plate, followed by the incubation at 37° C. for 2 h. The coating materials were removed, and the plate was blocked with 200 μL of Gibco™ PBS pH7.4, 0.1% Tween®20, and incubated for 1 h at room temperature with shaking at 200 rpm. The plate was washed 3 times with Gibco™ PBS pH7.4, 0.1% Tween 20. 50 μL of each mAb at 100 nM (15 mg/mL) in Gibco™ PBS pH 7.4, 0.1% Tween®20 was added in duplicate to the wells and incubated for 1 h at room temperature with shaking at 200 rpm. […] Plates were incubated for 1 h at room temperature, with shaking at 200 rpm. The plate was washed three times with Gibco™ PBS pH7.4, 0.1% Tween 20, and 100 μL of TMB substrate (Cell Signaling Technology©, 7004P6) added to each well. […] Binding scores were calculated as the ratio of the ELISA signal of the antibody to the signal of a well containing buffer instead of the primary antibody. The cutoffs considered for each binding molecule (ssDNA. KLH, Insulin, dsDNA and Heparin) were internally calculated, based on the average of Zymeworks Inc. produced antibodies and antibodies benchmarks published in the literature.

B1: v29456-MC-GGFG-AM-Compound 139 DAR 8 (antibody, human IgG1, kappa)
heavy: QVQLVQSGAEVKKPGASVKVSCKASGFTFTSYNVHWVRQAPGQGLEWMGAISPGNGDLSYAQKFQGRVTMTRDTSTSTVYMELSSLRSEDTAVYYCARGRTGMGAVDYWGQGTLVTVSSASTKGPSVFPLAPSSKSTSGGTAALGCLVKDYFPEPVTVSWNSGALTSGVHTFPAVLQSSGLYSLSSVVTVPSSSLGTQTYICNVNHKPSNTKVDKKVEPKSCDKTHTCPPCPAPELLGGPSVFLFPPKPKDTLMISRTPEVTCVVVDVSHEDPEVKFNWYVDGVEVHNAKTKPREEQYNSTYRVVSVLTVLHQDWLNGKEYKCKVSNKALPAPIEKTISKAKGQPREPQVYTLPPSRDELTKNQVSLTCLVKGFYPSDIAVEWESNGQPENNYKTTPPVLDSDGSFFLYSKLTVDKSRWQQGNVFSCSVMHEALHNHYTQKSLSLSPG
light: DVQMTQSPSSLSASVGDRVTITCRASQDVYSYLNWYQQKPGKAVKLLIYYTSRLQSGVPSRFSGSGSGTDYTLTISSLQPEDFATYYCQQYNIFPWTFGQGTKLEIKRTVAAPSVFIFPPSDEQLKSGTASVVCLLNNFYPREAKVQWKVDNALQSGNSQESVTEQDSKDSTYSLSSTLTLSKADYEKHKVYACEVTHQGLSSPVTKSFNRGEC
modifications: MC-GGFG-AM-Compound 139 drug-linker on reduced cysteines (maleimide); DAR 8 for the whole antibody
For B1, the “EC50 of cytotoxicity, 2D monolayer, IGROV-1 cells” value [1] was 0.39 nM, the “EC50 of cytotoxicity, 2D monolayer, TOV-21G cells” value [1] was 4.3 nM and the “EC50 of cytotoxicity, IGROV-1 3D spheroids” value (“EC50 … IGROV-1 3D spheroids” below) [2] was 0.31 nM. The “EC50 of cytotoxicity, TOV-21G:HDFa (1:1) 3D spheroids” value [2] was 0.24 nM, the “EC50 of cytotoxicity, H441 3D spheroids” value [3] was 1.57 nM and the “EC50 … IGROV-1 3D spheroids” value [3] was 0.55 nM. For the same binder, the “EC50 of cytotoxicity, TOV-21G 3D spheroids” value [3] was 0.54 nM.

B2: v29452 humanized anti-NaPi2b antibody (antibody, human IgG1, kappa, V domains shown)
VH: QVQLVQSGAEVKKPGASVKVSCKASGFTFTSYNVHWVRQAPGQGLEWMGAISPGNGDLSYAQKFQGRVTMTRDTSTSTVYMELSSLRSEDTAVYYCARGRTGMGAVDYWGQGTLVTVSS
VL: DVQMTQSPSSLSASVGDRVTITCRASQDVYSYLNWYQQKPGKAVKLLIYYTSRLQSGVPSRFSGSGSGTDYTLTISSLQPEDIATYYCQQYNIFPWTFGQGTKLEIKR
notes: Full-size IgG1/kappa; also called H1L3
B2 showed an NS-ELISA binding score [4] of 1.34.

B3: v18993 (lifastuzumab)-MCvcPABC-MMAE DAR 4 (antibody, human IgG1, kappa)
heavy 1: GEVQLVESGGGLVQPGGSLRLSCAASGFSFSDFAMSWVRQAPGKGLEWVATIGRVAFHTYYPDSMKGRFTISRDNSKNTLYLQMNSLRAEDTAVYYCARHRGFDVGHFDFWGQGTLVTVSSASTKGPSVFPLAPSSKSTSGGTAALGCLVKDYFPEPVTVSWNSGALTSGVHTFPAVLQSSGLYSLSSVVTVPSSSLGTQTYICNVNHKPSNTKVDKKVEPKSCDKTHTCPPCPAPELLGGPSVFLFPPKPKDTLMISRTPEVTCVVVDVSHEDPEVKFNWYVDGVEVHNAKTKPREEQYNSTYRVVSVLTVLHQDWLNGKEYKCKVSNKALPAPIEKTISKAKGQPREPQVYVYPPSRDELTKNQVSLTCLVKGFYPSDIAVEWESNGQPENNYKTTPPVLDSDGSFALVSKLTVDKSRWQQGNVFSCSVMHEALHNHYTQKSLSLSPG
heavy 2: not shown
light: GDIQMTQSPSSLSASVGDRVTITCRSSETLVHSSGNTYLEWYQQKPGKAPKLLIYRVSNRFSGVPSRFSGSGSGTDFTLTISSLQPEDFATYYCFQGSFNPLTFGQGTKVEIKRTVAAPSVFIFPPSDEQLKSGTASVVCLLNNFYPREAKVQWKVDNALQSGNSQESVTEQDSKDSTYSLSSTLTLSKADYEKHKVYACEVTHQGLSSPVTKSFNRGEC
modifications: MCvcPABC-MMAE drug-linker; DAR 4 for the whole antibody; attachment residues not stated
In the case of B3, the “EC50 of cytotoxicity, H441 3D spheroids” value [3] is reported as 11.7 nM, the “EC50 … IGROV-1 3D spheroids” value [3] is reported as 0.69 nM and the “EC50 of cytotoxicity, TOV-21G 3D spheroids” value [3] is reported as 25.5 nM.

B4: v23855, parental mouse-human chimeric anti-NaPi2b antibody (antibody, human IgG1, kappa, V domains shown)
VH: QAYLQQSGAELVRPGASVKMSCKASGFTFTSYNVHWVKQTPRQGLEWIAAISPGNGDLSYNQRFKDKATLTVDRSSSTAYMQLSGLTSEDSAVYFCARGRTGMGAVDYWGQGTSVTVSS
VL: DVQMTQTASSLSASLGDRVTISCRASQDVYSYLNWYQQKPHGTVKLLIYYTSRLQSGVPSRFTGSGSGTDYSLTISNLEPEDIATYYCQQYNIFPWTFGGGTKLEIKR
notes: Full-size antibody; also called parental chimeric
B4 gave an NS-ELISA binding score [4] of 2.38.

— patent US20250235548A1 (Zymeworks, published 2025)
